According to publication PMC8037251, “Molecular Characterization of the Extracellular Domain of Human Junctional Adhesion Proteins” (International Journal of Molecular Sciences, 2021):

B1: MBP-fused extracellular domain of human JAM-C (Gly30-Glu236) (domain or fragment, UniProt Q9BX67 30-236, looked up)
chain: GAVNLKSSNRTPVVQEFESVELSCIITDSQTSDPRIEWKKIQDEQTTYVFFDNKIQGDLAGRAEILGKTSLKIWNVTRRDSALYRCEVVARNDRKEIDEIVIELTVQVKPVTPVCRVPKAVPVGKMATLHCQESEGHPRPHYSWYRNDVPLPTDSRANPRFRNSSFHLNSETGTLVFTAVHKDDSGQYYCIASNDAGSARCEEQEME
notes: JAM-C, human, extracellular domain, Gly30-Glu236 of Q9BX67; No protease site between MBP and the target in the final design; Tetramer by size exclusion; also called junctional adhesion molecule C; source: E. coli SHuffle T7 Express, purified (amylose resin, size exclusion chromatography); not shown: MBP, N-terminal, kept
B2: MBP-fused extracellular domain of human JAM-B (Gly28-Ser238) (domain or fragment, UniProt P57087 28-238, looked up)
chain: GFSAPKDQQVVTAVEYQEAILACKTPKKTVSSRLEWKKLGRSVSFVYYQQTLQGDFKNRAEMIDFNIRIKNVTRSDAGKYRCEVSAPSEQGQNLEEDTVTLEVLVAPAVPSCEVPSSALSGTVVELRCQDKEGNPAPEYTWFKDGIRLLENPRLGSQSTNSSYTMNTKTGTLQFNTVSKLDTGEYSCEARNSVGYRRCPGKRMQVDDLNIS
notes: JAM-B, human, extracellular domain, Gly28-Ser238 of P57087; No protease site between MBP and the target in the final design; Octamer by size exclusion; also called junctional adhesion molecule B; source: E. coli SHuffle T7 Express, purified (amylose resin, size exclusion chromatography); not shown: MBP, N-terminal, kept
B3: MBP-fused extracellular domain of human JAM-A (Gly27-Arg228) (domain or fragment, UniProt Q9Y624 27-228, looked up)
chain: GSVTVHSSEPEVRIPENNPVKLSCAYSGFSSPRVEWKFDQGDTTRLVCYNNKITASYEDRVTFLPTGITFKSVTREDTGTYTCMVSEEGGNSYGEVKVKLIVLVPPSKPTVNIPSSATIGNRAVLTCSEQDGSPPSEYTWFKDGIVMPTNPKSTRAFSNSSYVLNPTTGELVFDPLSASDTGEYSCEARNGYGTPMTSNAVR
notes: JAM-A, human, extracellular domain, Gly27-Arg228 of Q9Y624; No protease site between MBP and the target in the final design (pET28a-MBP, NdeI/XhoI); also called junctional adhesion molecule A; source: E. coli SHuffle T7 Express, purified (amylose resin, size exclusion chromatography); not shown: MBP, N-terminal, kept
B4: MBP-fused extracellular domain of human JAM4 (Gly34-Arg286) (domain or fragment, UniProt Q9NSI5 34-286, looked up)
chain: GSGSGNEVIEGPQNARVLKGSQARFNCTVSQGWKLIMWALSDMVVLSVRPMEPIITNDRFTSQRYDQGGNFTSEMIIHNVEPSDSGNIRCSLQNSRLHGSAYLTVQVMGELFIPSVNLVVAENEPCEVTCLPSHWTRLPDISWELGLLVSHSSYYFVPEPSDLQSAVSILALTPQSNGTLTCVATWKSLKARKSATVNLTVIRCPQDTGGGINIPGVLSSLPSLGFSLPTWGKVGLGLAGTMLLTPTCTLTIR
notes: JAM4, human, extracellular domain, Gly34-Arg286 of Q9NSI5; No protease site between MBP and the target in the final design; Decamer by size exclusion; source: E. coli SHuffle T7 Express, purified (amylose resin, size exclusion chromatography); not shown: MBP, N-terminal, kept
B5: MBP-fused extracellular domain of human epithelial cadherin (Val102-Asp312) (domain or fragment)
chain: VIPPISCPENEKGPFPKNLVQIKSNKDKEGKVFYSITGQGADTPPVGVFIIERETGWLKVTEPLDRERIATYTLFSHAVSSNGNAVEDPMEILITVTDQNDNKPEFTQEVFKGSVMEGALPGTSVMEVTATDADDDVNTYNAAIAYTILSQDPELPDKNMFTINRNTGVISVVTTGLDRESFPTYTLVVQAADLQGEGLSTTATAVITVTD

Columns and labels:
[1] = biological target: the molecule itself; experiment: SEC; ENrich SEC 650 10 x 300 column, PBS as running buffer; peak positions compared with BioRad size exclusion standards; oligomeric state of the MBP fusion
[2] = biological target: B4; experiment: SPR; OpenSPR (Nicoya), ligand protein (0.100 mg) amine-coupled to a Carboxy sensor chip; 1 M sodium caprate injected to disrupt preformed interactions and after each analyte; analyte 12.5-100 ug per 200 uL injection, triplicate; global fit, 1:1 Langmuir model, TraceDraw; conditions: both partners purified
[3] = biological target: the molecule itself; experiment: as above
[4] = biological target: B2; experiment: as above; conditions: both partners purified
[5] = biological target: B3; experiment: SPR; as the other SPR (OpenSPR, amine-coupled ligand on a Carboxy chip, caprate between injections, 1:1 Langmuir fit) but in the presence of 3 mM CaCl2 (E-CAD experiments); conditions: both partners purified
[6] = biological target: the molecule itself; experiment: as above

| Kd [2] [nM] | koff [2] [s⁻¹] | kon [2] [M⁻¹ s⁻¹] | Kd [4] [nM] | koff [4] [s⁻¹] | kon [4] [M⁻¹ s⁻¹] | Kd [5] [nM] | koff [5] [s⁻¹] | kon [5] [M⁻¹ s⁻¹] | Binder | stoichiometry N [1] | Kd [3] [nM] | koff [3] [s⁻¹] | kon [3] [M⁻¹ s⁻¹] | Kd [6] [nM] | koff [6] [s⁻¹] | kon [6] [M⁻¹ s⁻¹] |
| --- | --- | --- | --- | --- | --- | --- | --- | --- | --- | --- | --- | --- | --- | --- | --- | --- |
| 0.0925 | 1.96e-07 | 2030 | 0.203 | 1.76e-05 | 85400 | – | – | – | B1 | 4 | 30.2 | 2.26e-05 | 782 | – | – | – |
| 159 | 0.000128 | 1210 | – | – | – | – | – | – | B2 | 8 | 9.97 | 5.36e-05 | 4800 | – | – | – |
| 2.33 | 4.09e-06 | 1600 | 2.82 | 5.09e-05 | 16500 | – | – | – | B3 | 2 | 76.6 | 0.000838 | 13100 | – | – | – |
| – | – | – | – | – | – | – | – | – | B4 | 10 | 0.139 | 2.04e-07 | 1670 | – | – | – |
| – | – | – | – | – | – | 308 | 0.000708 | 2340 | B5 | 2 | – | – | – | 197 | 0.000696 | 4650 |
